Test results reported in patent publication US20030113711A1, “Protein kinase peptide substrate determination using peptide libraries” (priority 2001, published 2003).

Assays:
Assay in all cases: Kinetic evaluation of peptide substrates, varying peptide at fixed ATP (phosphocellulose filter, [γ-33P]ATP)
Format in all cases: biochemical
Settings in all cases: other: ErbB-2; Km for peptide; ATP concentration >10 × Km (200 μM ATP); pH 7.5; 23.0 °C
[1] = system: C[C@H](NC(=O)[C@H](CCCNC(=N)N)NC(=O)CCCCCNC(=O)CCCC[C@@H]1SC[C@@H]2NC(=O)N[C@@H]21)C(=O)N[C@@H](Cc1c[nH]cn1)C(=O)N[C@@H](CCC(=O)O)C(=O)N[C@@H](CCC(=O)O)C(=O)N[C@@H](CCC(=O)O)C(=O)N[C@@H](Cc1ccc(O)cc1)C(=O)N[C@@H](Cc1c[nH]cn1)C(=O)N[C@@H](Cc1ccccc1)C(=O)N[C@@H](Cc1ccccc1)C(=O)N[C@@H](Cc1ccccc1)C(=O)N[C@@H](C)C(=O)N[C@@H](CCCCN)C(=O)N[C@@H](CCCCN)C(=O)N[C@@H](CCCCN)C(N)=O
Method: (§1) Peptide sequences identified as preferred substrates for ErbB-2 using the methods described in Laboratory Example 3 were synthesized. The kcat and Km values for each peptide were determined as follows, using the kinases ErbB-2, ErbB-4, and EGFR.
(§2) Reactions were performed in 96-well polystyrene round bottom plates in a final volume of 45 μL. Reaction mixtures contained 50 mM MOPS, pH 7.5, 10 mM MnCl2, 1 mM dithiothreitol (DTT), 200 μM ATP, 1.0 μCi [γ-^33P] ATP, and varying concentrations of peptide. The reaction was initiated by adding the purified kinase of interest and halted after 10 minutes at 23° C. (room temperature) by adding 45 μL of 0.5% phosphoric acid in water. A 75 μL aliquot of the halted reaction mixture was then transferred to MAPH phosphocellulose filter plates (Millipore, Bedford, Mass.). The plates were filtered three times with 0.2 mL of 0.5 percent phosphoric acid. Scintillation cocktail (50 μL) was added to each well, and the plate was analyzed by counting in a Packard TOPCOUNT® scintillation counter (Packard Instrument Co., Meriden, Conn.). In these assays, the concentration of ATP was greater than ten-fold higher than the Km for ATP, which permitted the kinetic data to be treated as a pseudo-first-order reaction with varying peptide concentration. All experiments were performed in quadruplicate and the average value for each data point was analyzed. The Km and Vmax values were calculated by fitting the data to the Henri-Michaelis-Menten equation by non-linear regression using SIGMAPLOT® (SPSS Science, Chicago, Ill.). kcat values were calculated using the Vmax value, and are based on the protein concentration of the enzyme preparation and an estimate of purity determined from an evaluation of a Coomassie Blue stained SDS-polyacrylamide gel.

[2] = system: CC[C@H](C)[C@H](NC(=O)[C@H](CCC(=O)O)NC(=O)[C@H](CCC(=O)O)NC(=O)[C@H](Cc1c[nH]cn1)NC(=O)[C@H](C)NC(=O)[C@H](CCCNC(=N)N)NC(=O)CCCCCNC(=O)CCCC[C@@H]1SC[C@@H]2NC(=O)N[C@@H]21)C(=O)N[C@@H](Cc1ccc(O)cc1)C(=O)N[C@@H](Cc1c[nH]cn1)C(=O)N[C@@H](Cc1ccccc1)C(=O)N[C@@H](Cc1ccccc1)C(=O)N[C@@H](Cc1ccccc1)C(=O)N[C@@H](C)C(=O)N[C@@H](CCCCN)C(=O)N[C@@H](CCCCN)C(=O)N[C@@H](CCCCN)C(N)=O
Method: as §1, §2

[3] = system: C[C@H](NC(=O)[C@H](CCCNC(=N)N)NC(=O)CCCCCNC(=O)CCCC[C@@H]1SC[C@@H]2NC(=O)N[C@@H]21)C(=O)N[C@@H](Cc1c[nH]cn1)C(=O)N[C@@H](Cc1c[nH]cn1)C(=O)N[C@@H](CCC(=O)O)C(=O)N[C@@H](CCC(=O)O)C(=O)N[C@@H](Cc1ccc(O)cc1)C(=O)N[C@@H](Cc1c[nH]cn1)C(=O)N[C@@H](Cc1ccccc1)C(=O)N[C@@H](Cc1ccccc1)C(=O)N[C@@H](Cc1ccccc1)C(=O)N[C@@H](C)C(=O)N[C@@H](CCCCN)C(=O)N[C@@H](CCCCN)C(=O)N[C@@H](CCCCN)C(N)=O
Method: as §1, §2

Substance: ErbB-2 (Homo sapiens)
- Km [1]: 6.8 µM
- kcat [1]: 0.0127 s⁻¹
- kcat/Km [1]: 1830 M⁻¹ s⁻¹
- Km [2]: 11.4 µM
- kcat [2]: 0.0967 s⁻¹
- kcat/Km [2]: 8500 M⁻¹ s⁻¹
- Km [3]: 14.7 µM
- kcat [3]: 0.09 s⁻¹
- kcat/Km [3]: 6170 M⁻¹ s⁻¹
